# From article PMC6820244
# Where two headings read alike, the source gives them in different places.
# B1: ssDNA X01 (ssDNA)
# DNA: GACGCTGCCGAATTCTACCAGTGCCTTGCTAGGACATCTTTGCCCACCTGCAGGTTCACCC
# B2: nicked four-way junction (structured_DNA)
# DNA 1: B1 DNA
# DNA 2: TGGGTGAACCTGCAGGTGGGCAAAGATGTCCATCTGTTGTAATCGTCAAGCTTTATGCCGTT
# DNA 3: CATGGAGCTGTCTAGAGGATCCGACTATCGA
# DNA 4: GAACGGCATAAAGCTTGACGATTACAACAGAT
# DNA 5: ATCGATAGTCGGATCCTCTAGACAGCTCCATGTAGCAAGGCACTGGTAGAATTCGGCAGCGT
# Tests used:
# [1] = target: T1, WRNIP1 (short isoform) (Homo sapiens, UniProt Q96S55-2 1-640); assay: EMSA
# T1 sequence: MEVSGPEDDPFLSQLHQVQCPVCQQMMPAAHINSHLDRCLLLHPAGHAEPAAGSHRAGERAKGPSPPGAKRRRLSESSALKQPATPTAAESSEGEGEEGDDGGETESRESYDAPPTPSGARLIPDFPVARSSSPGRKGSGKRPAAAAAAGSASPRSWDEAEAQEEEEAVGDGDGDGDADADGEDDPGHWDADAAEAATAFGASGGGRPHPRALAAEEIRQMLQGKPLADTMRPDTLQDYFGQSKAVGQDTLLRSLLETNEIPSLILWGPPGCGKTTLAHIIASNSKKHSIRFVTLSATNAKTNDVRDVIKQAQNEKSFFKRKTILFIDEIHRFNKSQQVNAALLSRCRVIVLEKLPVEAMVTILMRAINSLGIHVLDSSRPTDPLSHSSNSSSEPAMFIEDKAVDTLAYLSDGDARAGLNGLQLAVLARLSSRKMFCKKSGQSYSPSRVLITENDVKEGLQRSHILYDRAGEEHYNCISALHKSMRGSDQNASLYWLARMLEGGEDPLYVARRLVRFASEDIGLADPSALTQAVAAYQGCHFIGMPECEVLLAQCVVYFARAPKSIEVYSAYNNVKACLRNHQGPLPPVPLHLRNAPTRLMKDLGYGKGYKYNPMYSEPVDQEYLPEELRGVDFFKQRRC
# [2] = target: T1, WRNIP1 (short isoform); assay: EMSA; remark: listed apart in the source
Binder,binding result [1],binding result [2]
B1,no binding,
B2,,binds
